Target: T1, LukF component of Panton-Valentine Leukocidin (LukF-PV) (Staphylococcus aureus, strain )
T1 chain: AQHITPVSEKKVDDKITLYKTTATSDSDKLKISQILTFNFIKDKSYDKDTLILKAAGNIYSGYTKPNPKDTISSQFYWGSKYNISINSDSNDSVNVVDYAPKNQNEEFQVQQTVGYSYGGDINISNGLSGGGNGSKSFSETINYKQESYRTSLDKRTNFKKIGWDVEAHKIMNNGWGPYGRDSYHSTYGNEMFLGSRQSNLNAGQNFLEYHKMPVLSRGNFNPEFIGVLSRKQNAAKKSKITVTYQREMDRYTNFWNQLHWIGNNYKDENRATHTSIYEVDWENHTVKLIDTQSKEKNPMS
Test: BLI

B1: H5 mAb (broadly neutralizing antibody) (antibody, V domains shown)
VH: EVQLQESGPGLVRPSETLSLTCAVSGYSISSGMGWGWIRQPPGKGLEWIGSIDQRGSTYYNPSLKSRVTISVDTSKNQFSLKLSSVTAADTAVYYCARDAGHAVDMDVWGKGTTVTVSS
VL: DIQMTQSPSSVSASVGDRVTITCRASQGISRWLAWYQQKPGKAPKLLIYAASSLQSGVPSRFSGSGSGTDFTLTISSLQPEDFATYYCQQGYVFPLTFGGGTKVEIK
Kd: 0.4 nM
